Measured values from patent US20260217852A1 (ZONHON BIOPHARMA INSTITUTE, published 2026).

How the values were obtained:
CD3 protein = experiment: BLI (ForteBio), biotinylated CD3 protein on SA biosensors, antibody at 500 nM
Procedure: CD3 protein was first biotinylated using EZ-Link NHS-PEG12-Biotin, and the biotinylated protein was immobilized on SA biosensors. The biosensors were then equilibrated in 1× Kinetics Buffer, followed by incubation with the humanized bispecific antibody solution to allow binding. The concentration of the humanized bispecific antibody solution was 500 nM. Afterward, the biosensors were placed in 1× Kinetics Buffer for dissociation. Data were analyzed using Fortebio Data Analysis 8.0 software to calculate the affinity constant values.

[1] = target: T1, CD26 on cells (786-0, OS-RC-2, UT16, NCI-H226 tumor cells; PBMCs) (human, UniProt P27487 1-766); experiment: flow cytometry, PBMCs in a mixed system with 786-0 cells, antibody at 0.3 ug/mL
T1 construct: whole, on cells; The background says that CD26 commonly exists as a homodimer; also called CD26 target on tumor cells; CD26 on PBMCs
T1 sequence (P27487 whole entry): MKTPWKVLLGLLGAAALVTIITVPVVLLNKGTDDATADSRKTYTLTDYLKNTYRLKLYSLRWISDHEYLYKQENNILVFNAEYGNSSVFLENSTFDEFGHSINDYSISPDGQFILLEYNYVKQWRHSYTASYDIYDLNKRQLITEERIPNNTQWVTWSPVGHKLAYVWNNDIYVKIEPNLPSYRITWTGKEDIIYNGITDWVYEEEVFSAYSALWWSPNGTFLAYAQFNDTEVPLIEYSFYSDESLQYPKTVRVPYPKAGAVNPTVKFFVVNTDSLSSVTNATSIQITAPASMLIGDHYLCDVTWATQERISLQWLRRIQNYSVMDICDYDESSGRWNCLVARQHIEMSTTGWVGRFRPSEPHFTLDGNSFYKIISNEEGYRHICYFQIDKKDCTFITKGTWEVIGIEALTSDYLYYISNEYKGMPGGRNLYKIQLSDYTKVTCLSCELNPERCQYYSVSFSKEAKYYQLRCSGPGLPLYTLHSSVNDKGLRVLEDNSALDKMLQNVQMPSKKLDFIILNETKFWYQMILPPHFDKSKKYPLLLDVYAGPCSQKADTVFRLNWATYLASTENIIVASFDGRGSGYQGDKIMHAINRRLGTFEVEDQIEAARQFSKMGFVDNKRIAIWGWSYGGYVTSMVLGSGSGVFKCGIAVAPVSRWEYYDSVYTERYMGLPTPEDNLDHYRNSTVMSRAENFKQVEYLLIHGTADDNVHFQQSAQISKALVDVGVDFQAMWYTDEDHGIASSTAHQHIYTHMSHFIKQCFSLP

Kd (CD3 protein) [nM]	koff (CD3 protein) [s⁻¹]	kon (CD3 protein) [M⁻¹ s⁻¹]	binding result [1]	Binder
1.61	0.000137	84800	–	humanized CD26-CD3 BiTE bispecific antibody 19G300 (bispecific antibody, Single chain of about 55 kDa; also called humanized bispecific antibody 19G300) scFv: DIQMTQSPSSLSASPGDRVTISCRASQDIGNFLTWYQQKPGQAPKLLIYYRSRLHSGVPSRFSGSGSGTDYTLTISSLEPEDFATYYCQQDNTLPWTFGQGTKVEIKGGGGSGGGGSGGGGSEVQLVESGGGLVQPGGSLRLSCAASGFTFTNYYMSWVRQAPGKGLEWVAFIRDKANGYTTEYSASVKGRFTISRDNSKNTLYLQMNSLRAEDTAVYYCARVLRYLGYNFDYWGQGTLVTVSSGGGGSDVQLVQSGAEVKKPGASVKVSCKASGYTFTRYTMHWVRQAPGQGLEWIGYINPSRGYTNYADSVKGRFTITTDKSTSTAYMELSSLRSEDTATYYCARYYDDHYCLDYWGQGTTVTVSSGGGGSGGGGSGGGGSDIVLTQSPATLSLSPGERATLSCRASQSVSYMNWYQQKPGKAPKRWIYDTSKVASGVPARFSGSGSGTDYSLTINSLEAEDAATYYCQQWSSNPLTFGGGTKVEIK
–	–	–	binds	full-length humanized anti-CD26 antibody 21G428-429 (antibody, human IgG1, kappa, V domains shown, Derived from mouse antibody No. 62; About 150 kDa) VH: EVQLVQSGAELVKPGASVKLSCAASGFNIKDTYIYWVRQAPGQGLEWVGRIEPMNGNTKYDPKFQGRFTMTANTSKNTAYLQLSSLRSEDTAVYYCSRGGWLLLYVMDYWGQGTLVTVSS VL: DIVMTQSPSSLSVTPGERVSISCRSDKSLLHSNGNTYLYWFLQKPGQSPQVLIYRMSNLASGVPDRFSGSGSGTDFTLTISRVEAEDVGVYYCFQQLEYPYTFGQGTKLEIKR
